In US20230002481A1 (Chugai, published 2023) one finds Kd, koff and kon data, which are given here for one molecule.

The target of this experiment is T1, recombinant cyno C1r2s2 His/Flag tetramer (cynomolgus monkey, limits assumed).
T1 construct: Heterotetramer of two C1r-His and two C1s-Flag chains, co-expressed in FreeStyle293-F cells; also called cyno C1r2s2s
T1 chain 1: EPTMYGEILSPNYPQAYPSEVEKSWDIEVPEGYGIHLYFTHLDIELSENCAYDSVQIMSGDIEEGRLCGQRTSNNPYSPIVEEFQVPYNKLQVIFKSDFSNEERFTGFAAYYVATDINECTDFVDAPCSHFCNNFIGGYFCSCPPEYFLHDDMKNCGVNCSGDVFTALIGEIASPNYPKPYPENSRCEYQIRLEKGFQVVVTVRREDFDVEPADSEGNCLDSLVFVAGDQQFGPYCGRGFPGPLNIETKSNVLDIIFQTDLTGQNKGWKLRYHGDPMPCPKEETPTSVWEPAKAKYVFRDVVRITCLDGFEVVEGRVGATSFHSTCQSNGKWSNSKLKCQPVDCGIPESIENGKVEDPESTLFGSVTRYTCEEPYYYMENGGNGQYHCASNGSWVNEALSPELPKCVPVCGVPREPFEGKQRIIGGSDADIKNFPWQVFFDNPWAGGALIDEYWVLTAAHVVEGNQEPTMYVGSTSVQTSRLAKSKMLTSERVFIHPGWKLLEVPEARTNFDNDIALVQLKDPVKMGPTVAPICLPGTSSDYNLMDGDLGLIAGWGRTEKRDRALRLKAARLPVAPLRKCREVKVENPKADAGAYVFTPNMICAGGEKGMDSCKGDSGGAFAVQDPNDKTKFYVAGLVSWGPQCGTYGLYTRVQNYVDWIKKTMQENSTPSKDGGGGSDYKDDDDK
T1 chain 2: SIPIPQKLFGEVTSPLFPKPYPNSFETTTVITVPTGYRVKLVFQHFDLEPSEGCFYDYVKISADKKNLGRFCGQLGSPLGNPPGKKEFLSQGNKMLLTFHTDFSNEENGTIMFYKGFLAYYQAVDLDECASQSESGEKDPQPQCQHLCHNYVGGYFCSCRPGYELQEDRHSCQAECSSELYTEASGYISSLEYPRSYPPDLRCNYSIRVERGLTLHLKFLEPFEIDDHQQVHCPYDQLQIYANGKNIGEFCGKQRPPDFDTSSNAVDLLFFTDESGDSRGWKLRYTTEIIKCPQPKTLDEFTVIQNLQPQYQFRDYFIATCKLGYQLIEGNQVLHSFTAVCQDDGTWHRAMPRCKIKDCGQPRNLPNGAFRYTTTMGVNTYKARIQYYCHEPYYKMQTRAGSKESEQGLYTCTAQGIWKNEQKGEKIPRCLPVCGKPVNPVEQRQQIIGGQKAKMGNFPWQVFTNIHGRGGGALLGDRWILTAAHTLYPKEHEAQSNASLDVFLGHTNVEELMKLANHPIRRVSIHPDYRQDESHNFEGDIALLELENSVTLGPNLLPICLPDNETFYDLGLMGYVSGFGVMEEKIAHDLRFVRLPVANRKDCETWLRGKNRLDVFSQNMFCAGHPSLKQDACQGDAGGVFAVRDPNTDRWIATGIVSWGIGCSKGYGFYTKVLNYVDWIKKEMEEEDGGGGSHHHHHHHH
As to the kind of experiment: SPR (Biacore), antibody captured on ProA/G, antigen as analyte, 37 C, pH7.4, 1.2 mM CaCl2. The method, then: The kinetic parameters of anti-C1s antibodies against recombinant human C1s (as described in PCT/JP2018/042054), human C1r2s2, and cyno C1r2s2 His/Flag (also referred as cyno C1r2s2 in the Table and Figures) were assessed at pH7.4 and pH5.8, at 37 degrees C. using BIACORE (registered trademark) T200 instrument (GE Healthcare) or BIACORE 4000 (GE Healthcare). ProAG (Pierce) was immobilized onto a CM4 sensorchip using amine coupling kit (GE Healthcare) according to the recommended settings by GE Healthcare. Antibodies and analytes were diluted into the respective running buffers, ACES pH7.4 and pH5.8 (20 mM ACES, 150 mM NaCl, 1.2 mM CaCl₂, 1 mg/ml BSA, 1 mg/ml CMD, 0.05% Tween 20, 0.005 w/v % NaN₃). Each antibody was captured onto the sensor surface by ProA/G. Antibody capture levels were typically 100-200 resonance units (RU). Then, recombinant C1s was injected at concentrations of 25 and 50 nM followed by dissociation at pH7.4 and pH5.8. The surface was regenerated using 10 mM Glycine-HCl, pH1.5. Kinetic parameters at neutral pH conditions and acidic conditions were determined by fitting the sensorgrams with 1:1 binding model using BIACORE (registered trademark) T200 Evaluation software, version 2.0 (GE Healthcare) or BIACORE 4000 Evaluation software. The dissociation rate at pH5.8 (after dissociation at pH7.4, indicated as pH5.8* in TABLE 2) was determined by processing and fitting data using Scrubber 2.0 (BioLogic Software) curve fitting software. The association rate (ka), dissociation rate (kd), binding affinity (KD) at pH7.4 and pH5.8 condition, and dissociation rate (kd) at pH5.8* condition of the antibodies are listed in TABLE 2. Some kinetic parameters of COS0098pHv1 in acidic condition were not correctly calculated because of its weak binding response.
Also, to observe the cross-reactivity of anti-C1s antibodies against human C1r2s2 and cyno C1r2s2 (cyno C1r2s2 His/Flag), BIACORE (registered trademark) kinetics analysis was performed.
In general terms: Surface plasmon resonance follows binding to a sensor surface in real time, without labels.

What is called Kd is a measure of binding affinity in units of concentration. A word on the koff: it is the first-order rate constant of dissociation. By kon is commonly meant the rate constant with which the complex forms.

B1: COS0098pHv1 (antibody, V domains shown)
VH: QVQLVQSGAEVKKPGSSVKVSCKASGHTFSKYTVSWIRQPPGKGLEWIGIINTGGSAYPATWAKGRVTITADESTSTAYMELSSLRSEDTAVYYCARGAGDTDYTNLWGQGTLVTVSS
VL: DIQMTQSPSSLSASVGDRVTITCQASENIYSALAWYQQKPGQPPKLLIYGASQLESGVPSRFSGSGSGTDFTLTISSLQPEDFATYYCQQYYFTSHTFGQGTKVEIK
notes: Humanized, optimized pH-dependent variant of COS0098bb
For B1, the Kd stood at 2.87 nM, the off-rate (koff) came out at 0.00125 s⁻¹ and the kon amounted to 435000 M⁻¹ s⁻¹.
